Source: PMC6128974

Legend:
[1] = molecular target: T1, DOF3.4-ZF (Arabidopsis thaliana, UniProt Q39088 22-81); test: MST
T1 sequence: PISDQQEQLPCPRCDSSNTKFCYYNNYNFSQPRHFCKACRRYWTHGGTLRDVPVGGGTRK

[2] = molecular target: T2, DOF5.8-ZF (Arabidopsis thaliana, UniProt Q9FGD6 24-83); test: MST
T2 sequence: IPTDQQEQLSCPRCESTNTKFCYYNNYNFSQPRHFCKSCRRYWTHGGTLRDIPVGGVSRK

[3] = molecular target: T1, DOF3.4-ZF; test: EMSA
[4] = molecular target: T2, DOF5.8-ZF; test: EMSA

B1: Double-motif probe, fluorescein (dsDNA)
DNA 1: AAATAATCATAAAGTATTAAAGTAATATATAC
DNA 2: GTATATATTACTTTAATACTTTATGATTATTT
Kd [1]: 2300 ± 1000 nM | Kd [2]: 2500 ± 1000 nM

B2: Control for single-motif probe (dsDNA)
DNA 1: AATCCAGCGATGTAGAGGAG
DNA 2: CTCCTCTACATCGCTGGATT
binding result [3]: no binding | binding result [4]: no binding

B3: Control for double-motif probe (dsDNA)
DNA 1: AAATAATCATGCGATATTGCGAAATATATAAC
DNA 2: GTTATATATTTCGCAATATCGCATGATTATTT
binding result [3]: no binding | binding result [4]: no binding
